US20240026407A1, “MODIFICATION OF SAPONINS” (GLAXOSMITHKLINE BIOLOGICALS SA, priority 2020, published 2024)

Columns and labels:
Type in all cases: biochemical, Quillaja saponaria
[1] = Experiment 6-1: screening of rhamnosidases for derhamnosylation of saponins in treated bark extract (2%), QS-17 2296 to QS-18 2150 (PAR %); conditions: TBE 2%, pH 7.5, 30 degC, 18 h; TIC peak area ratio percent of rhamnosylated starting saponin to derhamnosylated product, LCMS/MS; negative controls 4.876, 5.225
[2] = Experiment 6-1: screening of rhamnosidases for derhamnosylation of saponins in treated bark extract (2%), desglucosyl-QS-17 2134 to QS-21 1988 (PAR %); conditions: TBE 2%, pH 7.5, 30 degC, 18 h; TIC peak area ratio percent, LCMS/MS; negative controls 2.719, 2.158
[3] = Experiment 6-1: screening of rhamnosidases for derhamnosylation of saponins in treated bark extract (2%), QS-17 2310 to QS-18 2164 (PAR %); conditions: TBE 2%, pH 7.5, 30 degC, 18 h; TIC peak area ratio percent, LCMS/MS; negative controls 3.061, 2.429
[4] = Experiment 6-1: specificity of rhamnosidases towards other rhamnose residues (C3 saccharide rhamnose, C28 saccharide rhamnose); conditions: TBE 2%, pH 7.5, 30 degC, 18 h; LCMS/MS; negative controls 0.18, 0.17

B1: 1043 (protein, listed as Flavobacterium johnsoniae)
chain: MKLSLKTFFYTMLLFSFFHAFSQEKLVSPWPESSNINQPWARWWWMGSAVDKPNLKRSLIDFHKAGIGGVEITPIYGVKGEENNFIDYLSPKWMEMLDYTIHVSDSLKMQVDMVLGTGWPYGGSHVTLPHAATKLIVEKYTVKKNETFDRDITVDSSKEKTPASLLYVVAYGNDGSFVNLTNELQNKKVNVKDKGLEGSNIKLPNKLEPNKLNWKAKKADYTIYAVFSGKTGQQVKRAAPGGKGYTLDHYSEEALKAYVIPFNEALKGREGKIRAVFNDSFEVYGTDFTPNFFEEFQKLRGYDLKKQLPVLLNETDNEIGNRIRSDYRQTISDLLLNKFDKFWTNWAHSKNFKTKLQAHGSPGNLIDLYASADIPECETFGSMPFDIPGFRRDKEDIREGDADPVMLKFSSSAAHISGKNLVSSETFTWLREHFKTALSQCKPEAEDLMLNGVNHIFLHGSTYSPDRAVWPGWQFYASVNFNSNNTIWEDAPALFSYISNCQSLLQQGKPDNEILLYWPIFDAWDKYEKGTLFYQFKIHSLSDWLYGTSFYDTTKNLMKKGYSVDFISDNFIAEAKVVNGNIVLPGGNFKSLVIPSCKKMPVETLQKLIELKKAGACILFEGLPESVPGFKDYKKQEQNLKNLLAENKIQAVSNIFTSLEDAKILPESLVNTGLKSIRRDINGEKIYYLVNHTAKTIDDFIPLQVENKEIILLDPLTHESGNAIVNKKDKITYVKIKIEPGQSYFLKTENTASQKKWNYFESASEPIALKGNWKLSFDKGGPKLPADAVVSNLESWTKLSPDAEAFSGSAAYTLQFENPNPKIENWSLNLGDVRESAKVWLNDEFIGTAWSVPYKLNIQKLKPGKNVLKIQVTNLPANRIRDMELKGQEWKIFHEINMVDKDYKKFDATKWIPMPSGLLGPVTLTALKQEN
QS-17 (PAR %) [1]: 5.098%
Peak75 (PAR %) [2]: 2.791%
Peak57 (PAR %) [3]: 3.119%
ratio PP/QS-21 [4]: 0.15

B2: 1028 (protein, listed as Formosa agariphila)
chain: MKYNKLLFSLLLLAVFCFSCKEEQKLQTSLDFDKVLLNAKSNPIAIESESPLFSWIIKAEGFGKSQSAYHILVASSLDKLDETHADVWNSNKVESSKSTFVKYEGKELKAATRYYWKVKVWDKSNQESNWSEPQYFQMGLLDESNWGEAKWITLTNDTRTSEYRFREYKTGRMEQPIQVDGFAASYFRNKINLNKEVDNAQVYICGLGYYEFFLNGEKVGDHVLDPAPSNYDKQAYYVNYDITEQLNSGENALGIILGNGFYGQNISWKNDPESDRDLAYGPPTVRVLLKLKYKDGTESEFFSDETWKESTGPIVFNNIYGGDTYDARFELGDWTSTNYDDSSWGFAKETAPEIKNISAQQIPAIKKLQDYEPQNVFKGSDGEWIVDFGQNIAGWVKLNVSEKEGQLIEVITTEALLTNGRDIFPGSTGGGANGMAQIYQYICKGDGQESWEPKFSYHGFRYAKIKGVSTKPDADMIKAVLVATDIQETGSFECSDDLFNKMHNISKWTIVDNVHGIPEDCPHREKCGWLGDAHAFCEYALYNYDMYDFYKKYMEDIRTQMLPTKGHNNPELKFQVPTMIAPGKRTSSYAKIDWGVATMYLPWYNYLYYGDDAIVNEYYPEMKDLTNFYLNFKGENGIMQDGMGDWCPPRWDRRTNPEAMECDPIISANAYFYDVLGIMETFAKMNNDGAFQSEMKAEKEALKDAFNKAFLVEIPNTDFKWYQSQTATVQALQFGMVPEEEIENVVNGLEYDIVEVKGGHHSTGIHGNRYIYTVLSKYGKADLAYRILTTPDFPSQTYIMNSGFTTWPERQFEWETMEGPTNSLNHPMHSGFSAYFFESLGGIKSSTKEAGYKQFIVNPEFPSQITQTKVSVPTPYGDIKNDWSFEEGKLSMTLEIPFNTEANLVLNQAELESLIINGKTFQNLQKNTKSVTLQGSNVILGSGKYKILYNKR
QS-17 (PAR %) [1]: 5.081%
Peak75 (PAR %) [2]: 2.885%
Peak57 (PAR %) [3]: 1.993%
ratio PP/QS-21 [4]: 0.15

B3: 1011 (protein, listed as Paenibacillus sp.)
chain: MQSNTAVLLKGGDAVYMKVKGDTDNMAAKDWGDWSARWIWLQEEQGNADKDARHERVYFRRVFELPAGTGKAYSLNMAITGDSRYRLFVNGQRQWAGPCKGHEHVQYYEEFNLEGILQPGINVIAVTVVHYAGTAPFEMGEDGPLSVWRSEQGGLLVEAEITADGQLVQELPTDTSWKAIRDLSYRLRPFPMMRWMGGLEEAAGDTALRDWTLPEYDDSAWSAARIVQPVRDDYGQLTPWQLERRPVPLLYEQEQCFWKLMRSSCGEGKALFTAGHRLELRDGASSTVPSIAGPAAEGVLVQAGQQLWLELDAGELTTGYLQLKLQGGGGSLITLQYAECYEEETGDEEVRRKAVRDEMREQVLRGGYDSYRPAGYGTEDQPEVYEPFWFRTFRYVRLEVHAGHEPLRITGINYRETGYPLQLQGSFHCSDERYNRLWELSVRTLSRCMHETYEDTPYYEQLQYTMDTRLMMEFTYLLSGDDRLARRAMEDYRASQLPNGMLQSRYPSVLPQVIPSFSLYWIGMIHDHYRVFRDLTLVKHYRTAMLSVLDWFDQRLTPEGLVDRTPRQYWNYYDWVEEWPLGAPDCTNEAPATLMSLMYAFALGQAAELLEASGWTQIAAELRQRKAAVNAAVLDNCRQADGPLFRDSPEAGPEVQLSQHTQVWAVLAGTVSAAEGEALLQTVLTDTSMAKLSLPMSYYLFRALELSGMYDRSYGLWTRWMKQLELGLTTLPEIDSADTRSDCHAWSALPITEFTRGILGVRQDIDGIILQPHCGDLQYASGAVSTEQGLITVSWEITTEEGVEVFRLEAVWTPGSAITVILPNGEVQKSDTGRIEIDIRGFNC
QS-17 (PAR %) [1]: 5.089%
Peak75 (PAR %) [2]: 2.854%
Peak57 (PAR %) [3]: 3.124%
ratio PP/QS-21 [4]: 0.19

B4: 998 (protein)
chain: MLSIALAAALAAGAVAPDWHDGLDWHGVHVAISRDAQQGYTLAWPYGQRTIAAQPLATQTASPLFDGLFAMAQDDLKQDSVSAIRDGAFDHGQPIPCQCFETGLKWPYVWTRDLSYAIDLGLWRFDPARSRNGLKFKLSGVRVASAPQGPAPKRLYPMQDTGSGGSWPISTDRVVWFLGARHLLDDQAFADDVYRALDATLAQDRQYAFDAGFGLYRGETSFLDWREQSYPAWTADEVTFIAQSYALSTNVLHYQALQLAANLADTHHDAKAAAGYRADAAALKAAINAHFWRAERGMYMSYLSGDGTPYDSYDLLGIALAIDSGVAGGERAKQALANYPTWPAGSPVIWPERADQPIYHNRAIWPFVSAYALRAARLTEQPARIAHEIESVLRGAALYGSNMENYELLTQGQHVDEGKLSGPVVNSPRQLWSVAAALAVVTEGVFGLNEDGSVEPKLPTALVPMLFGQRRTITLDLHERQITLQLPEKISGNLLVADRTRTQGTATTVTLKAVQVPDAPLRTDAPLYAPLAPAAPVVQAAGNGWRVSAEGKVRLYLNGRAHGDIDGTATLPRQPGLTCFSATRVDAHGLESLHSPDTCVGETAKVNGSWPRRWTAPATGRYRVALDYANDHGPINTGITAAVKMLEVSCAGSDPQRLPIVMPHSVRAQRSTWGTFTAQAGSACRFALDDGFNMSYLAHFAHYTANNGSGGNGGSSGPLNQAEVHALLIAPLAADRGTP
modifications: Rhodanobacter denitrificans
QS-17 (PAR %) [1]: 5.111%
Peak75 (PAR %) [2]: 2.402%
Peak57 (PAR %) [3]: 3.326%
ratio PP/QS-21 [4]: 0.15

B5: 1058 (protein, listed as Cyclobacterium marinum)
chain: MKLTTYYFCLIAGLCSLFTFGLHAQESAIYKQMRQNFQQPPNTAKPTVYHWWLGGDVDTVRLKEEILSFDKAGIAGFTIFEIGSRDTVFVGAGPEFLGEASLETIKVAVEEAGKYGMEVGLNTASSWNAGGNWLTPKHAAKSIYQRKVNVSGGGKEKIKLPFPDIPEKDPRGRKRLISYGKDGKPVYSEEIAVLAIPLVGENAAIDTSLIKDVSIYFDANKEVLNWDVPEGDWKIVRYVSSNSGENLVLPSKYSAGPIVDHFDADATAFHFNYIIDRLESKLGDLRKTSLKNLYMASYEARGFNWTPTLPQEFQELNGYDIKKFLPILFGEVSLSQEATAAFRAGFQRTLSELMIKNFYMKSKEICNAHGLKNNSEAGGPGYPLHDVPVEPLKALGKGLDIPRGEFWINHHNFSEEGMDVLRVVKEVSSASNIYGVGMVEMEAFTTFQQWQEGPYEMKPMGDRAFAEGMNRVVVHGSTHNPKGTGNPGIVYHAGTHYNDKRVWWKKVRPFNDYLARISYVLQEADFQSDVLYYYGDTIPNYGGHKRSRFNPGEGYDFELLNTEILFGLEVKNGKIINPRNGAEFKVLALTKEHEINPKVLSKLEQMASSGAIITGPKPNRIAPERNMKELPNMNGWLDNLWKPFSKQSFKPGSKAIYYNVSVGEILKALELSPDFSYKGNGFYTLDYTHYQKGDMDFYFIVNTTGEWLSRDLIFRQEGKVPELWNPENGNISPIPIYKETEEGISLPLSLAPHESAFVVFKPGIKPVHFTKIAHGGIHPPKVRYSDQGIEFWEEGEFGLGHGEDTLILNNFPNVKSLEGAWEIYFPEGWGAPDKAIFPELKSWTESENEGIKYFSGTARYEKKFIHEMHASEYPEAKIYLDLGDLSHVAEVWLNDKPLGITWSKPYRFDVTEAIKPGINTLKIEVANTWSNRLTGDAITGKDYTQTHVNNTVIKGMPNFRVTWENAPLIPSGILGPVTLTTVLPIAMPK
QS-17 (PAR %) [1]: 5.121%
Peak75 (PAR %) [2]: 2.398%
Peak57 (PAR %) [3]: 3.144%
ratio PP/QS-21 [4]: 0.17

B6: 991 (protein)
chain: MKFARLNTLTVWLITSFITVSFTISEAISADLTPVNLRTEYKRNPVVDVDKPRLSWELTATGRGQIQTAYQILVASSAALLNAEKADLWQSAKVAGNATNQIEYSGKTLLSRTVCYWKVRSWDKNGQPGPWSAVATWEMGLLTKADWKADWIGNDLTALGKGKTYHLPPSPFFRKEIQLTAPVKKARLYVTSLGLYEYQINGKRIGNDYFTPGWTDYNKRVYYQTYDVTADVKPGKNALGAILADGWYAGYLGYALLVGNPVVKNFYGNVPLLKAQLEIEYTNGKTETIATDQSWKTSHGPILEADILNGETYNANLAFDNWSKTGFNDAGWKNSTIFPDKPDRQLEAYPGNPVRVFQELKAKTVTPKAGGHYLFDLGQNFAGMVRLRVKGNKGDTIRLRFGEVLFPNGDIMTENLRKARATDTYILKGDPQGETWTPKFTYHGFQYVDVAGFKSAPGLDAITGIVLTSATPETGSFETDNKLINKLYQNIVWTQRSNYVEVPTDCPQRDERLGWTGDAQAYVQSATFNNDISAFFTKWLVDLNDAQRPDNAYPIYAPAPNVRKTDTYSPGWSEAGIICPYTIYKTYGDTRVIQKFWPNMVAYLKFMEAKSQGTYVYKEGSFAEVSPKGGFGDWLSVGKKTPPDMLATLYFGYAASMMADMAKAIGKPDEATYYTTMFTKIKQAFRAHYTDETGRFKTNSAAYGNGEGYVDGEMGFEGHTQTAYANAIYMNMIAPDLTPKAGNWLVDLIKANDNKLSTGFLGVKPLLPSLSMTGHSNEAYKLLLSTEYPSWGFEVVNGANTIWERWNSYIKGKGFENNAGMNSFNHYAFGSVNEWLFGNAAGIKAAEAGYRTFIIRPELAPQGINFVNASYRSINGTIVSSWKKEGNRVRMKVVVPANTTATVFIPITKPDSVLESNKALTASQDIRVIGARDGYLQVTVGSGTYQFSAVN
modifications: Spirosoma linguale
QS-17 (PAR %) [1]: 5.084%
Peak75 (PAR %) [2]: 2.453%
Peak57 (PAR %) [3]: 3.443%
ratio PP/QS-21 [4]: 0.17
